Reference: paper PMC4876856

Biological target: truncated rabbit TRPV2 (residues 56-560 and 581-721) (rabbit) (UniProt G1SNM3)
Test: cryo-EM structure

stoichiometry N: 4
Substance: truncated rabbit TRPV2 (residues 56-560 and 581-721) (from UniProt G1SNM3 56-560; G1SNM3 581-721) (domain or fragment)
